The chains are these.
B1: Ric-8A (1-491) P466A (domain or fragment)
chain: MEPRAVADALETGEEDAVTEALRSFNREHSQSFTFDDAQQEDRKRLAKLLVSVLEQGLSPKHRVTWLQTIRILSRDRSCLDSFASRQSLHALACYADIAISEEPIPQPPDMDVLLESLKCLCNLVLSSPTAQMLAAEARLVVRLAERVGLYRKRSYPHEVQFFDLRLLFLLTALRTDVRQQLFQELHGVRLLTDALELTLGVAPKENPLVILPAQETERAMEILKVLFNITYDSVKREVDEEDAALYRYLGTLLRHCVMADAAGDRTEEFHGHTVNLLGNLPLKCLDVLLALELHEGSLEFMGVNMDVINALLAFLEKRLHQTHRLKECVAPVLSVLTECARMHRPARKFLKAQVLPPLRDVRTRPEVGDLLRNKLVRLMTHLDTDVKRVAAEFLFVLCSESVPRFIKYTGYGNAAGLLAARGLMAGGRPEGQYSEDEDTDTEEYREAKASINPVTGRVEEKPPNAMEGMTEEQKEHEAMKLVNMFDKLSR
B2: Ric-8A (1-491) V455A (domain or fragment)
chain: B1 chain with V455A, A466P
B3: Ric-8A (1-491) G469A (domain or fragment)
chain: B1 chain with A466P, G469A
B4: Ric-8A (1-491) T456A (domain or fragment)
chain: B1 chain with T456A, A466P
B5: Ric-8A (1-491) E468A (domain or fragment)
chain: B1 chain with A466P, E468A
B6: Ric-8A (1-491) M467A (domain or fragment)
chain: B1 chain with A466P, M467A
B7: Ric-8A (1-491) P454A (domain or fragment)
chain: B1 chain with P454A, A466P
B8: (1-452)Ric-8A truncation mutant (domain or fragment)
chain: MEPRAVADALETGEEDAVTEALRSFNREHSQSFTFDDAQQEDRKRLAKLLVSVLEQGLSPKHRVTWLQTIRILSRDRSCLDSFASRQSLHALACYADIAISEEPIPQPPDMDVLLESLKCLCNLVLSSPTAQMLAAEARLVVRLAERVGLYRKRSYPHEVQFFDLRLLFLLTALRTDVRQQLFQELHGVRLLTDALELTLGVAPKENPLVILPAQETERAMEILKVLFNITYDSVKREVDEEDAALYRYLGTLLRHCVMADAAGDRTEEFHGHTVNLLGNLPLKCLDVLLALELHEGSLEFMGVNMDVINALLAFLEKRLHQTHRLKECVAPVLSVLTECARMHRPARKFLKAQVLPPLRDVRTRPEVGDLLRNKLVRLMTHLDTDVKRVAAEFLFVLCSESVPRFIKYTGYGNAAGLLAARGLMAGGRPEGQYSEDEDTDTEEYREAKASI

This is an account of results in PMC5182059.

Residue numbers refer to the chain shown, from its start. Names and notes keep the numbering of the source.

The experiment concerns the target myristoylated Gαi1 harboring a hexahistidine tag in the helical domain (rat) (UniProt P10824).
Chain of UniProt P10824 (P10824 whole entry, the tested form may be a part): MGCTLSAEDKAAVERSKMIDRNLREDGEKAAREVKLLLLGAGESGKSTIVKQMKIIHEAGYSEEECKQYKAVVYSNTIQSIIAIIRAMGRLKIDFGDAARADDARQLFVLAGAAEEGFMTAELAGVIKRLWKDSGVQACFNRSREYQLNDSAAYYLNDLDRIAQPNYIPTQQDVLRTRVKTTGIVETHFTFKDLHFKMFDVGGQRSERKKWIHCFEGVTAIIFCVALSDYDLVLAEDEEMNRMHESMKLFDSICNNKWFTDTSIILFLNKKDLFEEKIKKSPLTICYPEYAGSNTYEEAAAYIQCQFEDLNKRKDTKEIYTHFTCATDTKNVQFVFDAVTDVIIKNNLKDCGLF
Regarding B1, the v1: initial velocity of GDP to GTPγS exchange at Gαi1•GDP (2 μM) on adding GTPγS (10 μM) and Ric-8A (2 μM), tryptophan fluorescence, 25°C turned out to be 0.47 µM/min; the v2: initial rate of GTPγS binding to pre-formed Gαi1:Ric-8A (2 μM each, incubated 5 min before 10 μM GTPγS), with release of Ric-8A, tryptophan fluorescence, 25°C was 0.34 µM/min.
In the same order, the values of B2 are 0.82 µM/min and 0.25 µM/min.
In the same order, the values of B3 are 0.63 µM/min and 0.26 µM/min.
For the molecule B4, the v1: initial velocity of GDP to GTPγS exchange at Gαi1•GDP (2 μM) on adding GTPγS (10 μM) and Ric-8A (2 μM), tryptophan fluorescence, 25°C stood at 0.59 µM/min; the v2: initial rate of GTPγS binding to pre-formed Gαi1:Ric-8A (2 μM each, incubated 5 min before 10 μM GTPγS), with release of Ric-8A, tryptophan fluorescence, 25°C turned out to be 0.24 µM/min.
The like results for B5 were, in that order, 3.82 µM/min and 6.23 µM/min.
The like results for B6 were, in that order, 2.17 µM/min and 4.57 µM/min.
The like results for B7 were, in that order, 2.88 µM/min and 5.39 µM/min.
Consider B8, for which the v1: initial velocity of GDP to GTPγS exchange at Gαi1•GDP (2 μM) on adding GTPγS (10 μM) and Ric-8A (2 μM), tryptophan fluorescence, 25°C stood at 0.86 µM/min; the v2: initial rate of GTPγS binding to pre-formed Gαi1:Ric-8A (2 μM each, incubated 5 min before 10 μM GTPγS), with release of Ric-8A, tryptophan fluorescence, 25°C amounted to 0.39 µM/min.
